PMC3210727 (Science (New York, N.Y.), 2011)

Legend:
Experiment in all cases: flow cytometry on cells
[1] = target: surface-expressed H3 HA from A/Hong Kong/1/1968, uncleaved precursor (HA0) (Influenza A virus (strain A/Hong …, UniProt Q91MA7))
[2] = target: surface-expressed H3 HA from A/Hong Kong/1/1968, cleaved (HA) (Influenza A virus (strain A/Hong …, UniProt Q91MA7))
[3] = target: surface-expressed H3 HA from A/Hong Kong/24/1985, cleaved (HA) (Influenza A virus A/Hong Kong/24/1985 …, UniProt Q38TK5, strain)
[4] = target: surface-expressed H7 HA, uncleaved (HA0) (Influenza A virus H7, strain not named; …, UniProt Q6VMK1)
[5] = target: surface-expressed H7 HA, cleaved (HA) (Influenza A virus H7, strain not named; …, UniProt Q6VMK1)

Measured: binding result

B1: human monoclonal antibody CR8020 (antibody, V domains shown)
VH: QVQLQQSGAEVKTPGASVKVSCKASGYTFTSFGVSWIRQAPGQGLEWIGWISAYNGDTYYAQKFQARVTMTTDTSTTTAYMEMRSLRSDDTAVYYCAREPPLFYSSWSLDNWGQGTLVTVSS
VL: EIVMTQSPGTLSLSPGERATLSCRASQSVSMNYLAWFQQKPGQAPRLLIYGASRRATGIPDRISGSGSGTDFTLTISRLEPADFAVYYCQQYGTSPRTFGQGAKVEIK
binds: all assays above
